Laboratory results taken from publication PMC5466061.

B1: hTert 1-12 (structured_DNA)
DNA: AGGGGAGGGGCTGGGAGGGCCCGGAGGGGGCTGGGCCGGGGACCCGGGAGGGGTCGGGACGGGGCGGGGT
B2: (GGGTTA)8 (structured_DNA)
DNA: TCGAGGGTTAGGGTTAGGGTTAGGGTTAGGGTTAGGGTTAGGGTTAGGGTTAC

Biological target: nucleolin (NCL) (Homo sapiens, UniProt P19338 1-710)
Experiment: EMSA

Chain of nucleolin (NCL) (P19338 whole entry): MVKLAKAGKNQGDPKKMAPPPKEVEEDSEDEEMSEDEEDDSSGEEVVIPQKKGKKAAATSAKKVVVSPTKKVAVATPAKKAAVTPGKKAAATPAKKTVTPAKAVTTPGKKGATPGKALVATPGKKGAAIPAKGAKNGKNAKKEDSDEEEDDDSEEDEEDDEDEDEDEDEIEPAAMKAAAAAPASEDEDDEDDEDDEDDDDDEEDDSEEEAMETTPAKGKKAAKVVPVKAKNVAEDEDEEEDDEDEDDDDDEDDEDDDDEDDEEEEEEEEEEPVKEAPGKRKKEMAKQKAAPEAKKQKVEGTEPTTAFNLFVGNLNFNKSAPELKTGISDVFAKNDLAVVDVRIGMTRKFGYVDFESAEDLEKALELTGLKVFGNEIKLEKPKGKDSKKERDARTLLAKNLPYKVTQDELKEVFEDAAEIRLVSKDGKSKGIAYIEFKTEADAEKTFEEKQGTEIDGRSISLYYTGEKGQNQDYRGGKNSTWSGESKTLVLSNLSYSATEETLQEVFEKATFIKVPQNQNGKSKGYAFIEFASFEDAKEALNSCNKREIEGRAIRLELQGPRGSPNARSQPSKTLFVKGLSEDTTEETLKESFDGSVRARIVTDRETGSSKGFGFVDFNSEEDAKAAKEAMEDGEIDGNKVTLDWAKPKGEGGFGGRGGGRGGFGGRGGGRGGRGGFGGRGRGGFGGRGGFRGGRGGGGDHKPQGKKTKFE

Binder | binding result
GGGTTTTTTTTTGGGTTTGGGTTTGGG (structured_DNA) [n5M2] | binds
GGGTTTGGGTTTGGGTTTGGG (structured_DNA) [(GGGTTT)4 = 333] | binds
GGGTTTGGGTTTTTTTTTGGGTTTGGG (structured_DNA) [n5M3] | binds
GGGTTTGGGTTTGGGTTTGGGTTTGGG (structured_DNA) [(GGGTTT)5] | binds
B1 | binds
TGGGGAGGGTGGGGAGGGTGGGGAAGG (structured_DNA) [c-myc] | binds
GGGTTTGGGTTTGGGTTTGGGTTTGGGTTTGGGTTTGGGTTTGGGTTT (structured_DNA) [(GGGTTT)8] | binds
AGGGGGCTGGGCCGGGGACCCGGGAGGGGTCGGGACGGGGCGGGGT (structured_DNA) [hTert 5-12] | binds
GGGTGGGTGGGTGGG (structured_DNA) [111] | binds
GGGTTTGGGTTTGGGTTTGGGTTTGGGTTTGGGTTT (structured_DNA) [(GGGTTT)6] | binds
GGGTTTGGGTTTGGGTTTTTTTTTGGG (structured_DNA) [n5M4] | binds
B2 | binds
AGGGGCGGGCGCGGGAGGAAGGGGGCGGGAGCGGGGCTG (structured_DNA) [bcl-2] | binds
GGGTTAGGGTTAGGGTTAGGGTTAGGGTTAGGGTTA (structured_DNA) [(GGGTTA)6] | binds
GGGTTAGGGTTAGGGTTAGGG (structured_DNA) [(GGGTTA)4] | binds
